Results reported in doi:10.1101/2025.08.27.672771 (bioRxiv, 2025).

Target: the molecule itself
Assay: SEC

B1: human TRPC3 (hTRPC3) channel, GFP-MBP-tagged (natural protein, UniProt Q13507 86-921, looked up)
chain: MREKGRRQAVRGPAFMFNDRGTSLTAEEERFLDAAEYGNIPVVRKMLEESKTLNVNCVDYMGQNALQLAVGNEHLEVTELLLKKENLARIGDALLLAISKGYVRIVEAILNHPGFAASKRLTLSPCEQELQDDDFYAYDEDGTRFSPDITPIILAAHCQKYEVVHMLLMKGARIERPHDYFCKCGDCMEKQRHDSFSHSRSRINAYKGLASPAYLSLSSEDPVLTALELSNELAKLANIEKEFKNDYRKLSMQCKDFVVGVLDLCRDSEEVEAILNGDLESAEPLEVHRHKASLSRVKLAIKYEVKKFVAHPNCQQQLLTIWYENLSGLREQTIAIKCLVVLVVALGLPFLAIGYWIAPCSRLGKILRSPFMKFVAHAASFIIFLGLLVFNASDRFEGITTLPNITVTDYPKQIFRVKTTQFTWTEMLIMVWVLGMMWSECKELWLEGPREYILQLWNVLDFGMLSIFIAAFTARFLAFLQATKAQQYVDSYVQESDLSEVTLPPEIQYFTYARDKWLPSDPQIISEGLYAIAVVLSFSRIAYILPANESFGPLQISLGRTVKDIFKFMVLFIMVFFAFMIGMFILYSYYLGAKVNAAFTTVEESFKTLFWSIFGLSEVTSVVLKYDHKFIENIGYVLYGIYNVTMVVVLLNMLIAMINSSYQEIEDDSDVEWKFARSKLWLSYFDDGKTLPPPFSLVPSPKSFVYFIMRIVNFPKCRRRRLQKDIEMGMGNSKSRLNLFTQSNSRVFESHSFNSILNQPTRYQQIMKRLIKRYVLKAQVDKENDEVNEGELKEIKQDISSLRYELLEDKSQATEELAILIHKLSEKLNPSMLRCE
- stoichiometry N: 4
